{"source": "patent US20220259593A1", "about": "“CONTROL OF MAMMALIAN GENE DOSAGE USING CRISPR” (The Regents of the University of California, priority 2019, published 2022)", "molecules": {"B1": {"name": "cr206 (nucleic acid)", "guide": "GTTTAAGAGCTAAGCTGGAAACAGCATAGCAAGTTTAAATAAGGCTAGTCCGTTATCAACCTGAAAAAGTGGCACCGACTCGGTGCT", "modifications": "listed as DNA, chemistry not fully specified"}, "B2": {"name": "cr806 (nucleic acid)", "guide": "GTTTAAGAGCTAAGCTGGAAACAGCATAGCAAGTTTAAATAGGGCTAGTCCGTTATCAACTTGAAAAAGTGGCACCGAGTCGGTGCT", "modifications": "listed as DNA, chemistry not fully specified"}, "B3": {"name": "cr488 (nucleic acid)", "guide": "GTTTAAGAGCTAAGCTGGAAACAGCATAGCAAGTTTAAATAAGGCTAGTCCGTTATCAACTTGAAAAAGTGGGACCGAGTCGGTCCT", "modifications": "listed as DNA, chemistry not fully specified"}, "B4": {"name": "cr396 (nucleic acid)", "guide": "GTTTAAGAGCTAAGCTGGAAACAGCATAGCAAGTTTAAATAAGGCTAGTCCGTTATCAACTTGAAAAAGTGGCAACAAGTTGTTGCT", "modifications": "listed as DNA, chemistry not fully specified"}, "B5": {"name": "cr869 (nucleic acid)", "guide": "GTTTAAGAGCTAAGCTGGAAACAGCATAGCAAGTTTAAATAAGGCTAGTCCGTTATCAACTTGAAAAAGAGGCACCGAGTCGGTGCT", "modifications": "listed as DNA, chemistry not fully specified"}, "B6": {"name": "cr520 (nucleic acid)", "guide": "GTTTAAGAGCTAAGCTGGAAACAGCATAGCAAGTTTAAATAAGGCTAGTCCGATATCAACTTGCAAAAGTGGCACCGAGTCGGTGCT", "modifications": "listed as DNA, chemistry not fully specified"}, "B7": {"name": "cr402 (nucleic acid)", "guide": "GTTTAAGAGCTAAGCTGGAAACTGCATAGCAAGTTTAAATAAGGCTAGTCCGTTATCAACTTGAAAAAGTGGCACCGAGTCGGTGCT", "modifications": "listed as DNA, chemistry not fully specified"}, "B8": {"name": "cr286 (nucleic acid)", "guide": "GTTTAAGAGCTAAGCTGGAAACAGCATAGCAAGTTTAAATAAGGCGAGTCCGTTATCAACTTGAGAAAGTGGCACCGAGTCGGTGCT", "modifications": "listed as DNA, chemistry not fully specified"}, "B9": {"name": "cr705 (nucleic acid)", "guide": "GTTTAAGAGCTAAGCTGGAAACAGCATAGCAAGTTTAAATAAGGCTAGTCCGTTATCAACTTGAAAAAGTGGCACGGAGTCCGTGCT", "modifications": "listed as DNA, chemistry not fully specified"}, "B10": {"name": "cr414 (nucleic acid)", "guide": "GTTTAAGAGCTAAGCTGGAAACAGCATAGCAAGTTTAAATAAGGCTAGTCCGTTATCAACTTGAAAAAGTGGCTCCGAGTCGGTGCT", "modifications": "listed as DNA, chemistry not fully specified"}, "B11": {"name": "cr617 (nucleic acid)", "guide": "GTTTAAGAGCTAAGCTGGAAACAGCATAGCAAGTTTAAATAAGGTTAATCCGTTATCAGCGTGAAAACGCGGCACCGAGTCGGTGCT", "modifications": "listed as DNA, chemistry not fully specified"}, "B12": {"name": "cr358 (nucleic acid)", "guide": "GTTTAAGAGCTAAGCTGGAAACAGCATAGCAAGTTTAAATAAGGTTAATCCGTTATCAAGTTGAAAAACTGGCACTGAGTCAGTGCT", "modifications": "listed as DNA, chemistry not fully specified"}, "B13": {"name": "cr749 (nucleic acid)", "guide": "GTTTAAGAGCTAAGCTGGAAACAGCATAGCGAGTTTAAATAAGGCTAGTCCGTCATCAACTTGAAAAAGTGGCACCGCGTCGGTGCT", "modifications": "listed as DNA, chemistry not fully specified"}, "B14": {"name": "cr013 (nucleic acid)", "guide": "GTTTGAGAGCTAAGCTGGAAACAGCATAGCAAGTTTAAATAAGGCTAGTCCGTTATCAACTTGAAAAAGTGGCACCGAGTCGGTGCT", "modifications": "listed as DNA, chemistry not fully specified"}, "B15": {"name": "cr909 (nucleic acid)", "guide": "GTTTAAGAGCTAAGCTGGAAACAGCATATCAAGTTTAAATAAGGCTAGTCCGTGATCAACTTGTAAAAGTGGCACCGAGTCGGTGCT", "modifications": "listed as DNA, chemistry not fully specified"}, "B16": {"name": "cr759 (nucleic acid)", "guide": "GTTTAAGAGCTAAGCTGGAAACAGCATAGCAAGTTTAAATAAGGCTCGTCCGTTATCAACTTGAGAAAGTGGCACCGAGTCGGTGCT", "modifications": "listed as DNA, chemistry not fully specified"}, "B17": {"name": "cr984 (nucleic acid)", "guide": "GTTTAAGAGCTAAGCTGGAAACAGCATAGCAAGTTTAAATAAGGCTAGTCCGTTATCAACTTGAAAAAGTGGCACCGAGTCGGTGGT", "modifications": "listed as DNA, chemistry not fully specified"}, "B18": {"name": "cr694 (nucleic acid)", "guide": "GTTTAAGAGCTAAGCTGGAAACAGCATAGCAAGTTTAAATAAGGCTAGTCCGGTATCAACTTGTAAAAGTGGCACCGAGTCGGTGCT", "modifications": "listed as DNA, chemistry not fully specified"}, "B19": {"name": "cr123 (nucleic acid)", "guide": "GTTTAAGAGCTAAGCTGGAAACAGCATAGCAAGTTTAAATAAGGCTAGTCCGTTATCAACGTGAAAAAGTGGCACCGAGTCGGTGCT", "modifications": "listed as DNA, chemistry not fully specified"}, "B20": {"name": "cr702 (nucleic acid)", "guide": "GTTTAAGAGCTAAGCTGGAAACAGCATAGCAAGTTTAAATAAGGCTAGTCCGTTATCAACTTGAAAAAGTGCCACCGAGTCGGTGCT", "modifications": "listed as DNA, chemistry not fully specified"}, "B21": {"name": "cr626 (nucleic acid)", "guide": "GTTTAAGAGCTAAGCTGGAAACAGCATAGCAAGTTTAAATAAGGCTAGTCCGTTATCAACTTGACAAAGTGGCACCGCGTCGGTGCT", "modifications": "listed as DNA, chemistry not fully specified"}, "B22": {"name": "cr367 (nucleic acid)", "guide": "GTTTAAGAGCTAAGCTGGAAACAGCATAGCAAGTTTAAATAAGACTAGTTCGTTATCAACTCGAAAGAGTGGTACCGAGTCGGTACT", "modifications": "listed as DNA, chemistry not fully specified"}}}
{"tested_on": "K562 CRISPRi cells", "assay": "Constant region variant library pooled growth screen, K562", "assay_type": "cell-based, human", "conditions": "sgRNA constant region variants; activity relative to the original, un-modified constant region cr995", "source_text": "(§1) We calculated relative activities for each targeting sequence:constant region pair by normalizing its phenotype to that of the targeting sequence paired with the unmodified constant region, identifying 409 constant region variants that on average conferred intermediate activity (0.1-0.9, FIG. 5B). Ten variants selected for individual evaluation also mediated intermediate levels of mRNA knockdown (FIG. 6B). Mapping the activities of constant region variants with single base substitutions onto the structure recapitulated known relationships between constant region structure and function (FIG. 5C).\n(§2) The sequences in the library of modified constant regions were derived from the sgRNA (F+E) optimized sequence (23) modified to include a BlpI site (15). Each modified constant region was paired with 36 sgRNA targeting sequences (3 sgRNAs targeting each of 10 essential genes and six non-targeting negative control sgRNAs). The cloning strategy (described below) allowed the mutation of most positions in the sgRNA constant region. A variety of modifications were made, including substitutions of all single bases not in the BlpI restriction site (which is used for cloning), double substitutions including all substitutions at base-paired position pairs not before or in the BlpI site, and a variety of triple, quadruple, and sextuple substitutions, including base-pair-preserving substitutions at adjacent base-pairs.\n(§3) The library was ordered and cloned in two parts. One part consisted of ˜100 modifications to the eight bases upstream of the BlpI restriction site. Constant region variants with mutations in this section were paired with each of the 36 targeting sequences, ordered as a pooled oligonucleotide library (Twist Biosciences), and cloned into pCRISPRia-v2 as described above. The second part consisted of ˜900 modifications to the 71 bases downstream of the BlpI restriction site. This part was cloned in two steps. First, all 36 targeting sequences were individually cloned into pCRISPRia-v2 as described above. The vectors were then pooled at an equimolar ratio and digested with BlpI (NEB) and XhoI (NEB). The modified constant region variants were ordered as a pooled oligonucleotide library (Twist Biosciences), PCR amplified with Phusion polymerase (NEB), digested with BlpI (NEB) and XhoI (NEB), and ligated into the digested vector pool, in a manner identical to previously published protocols and as described above, except for the different restriction enzymes.\n(§4) Screens with the compact mismatched sgRNA library and the constant region library were conducted largely as described above, with smaller modifications during the screening procedure and an updated sequencing library preparation protocol. Briefly, the libraries were transduced in duplicate into K562 CRISPRi (both libraries) or HeLa CRISPRi cells (compact mismatched sgRNA library) as described above. K562 replicates were maintained separately in 0.15 to 0.3 L of RPMI-1640 in 0.3 L spinner flasks for the course of the screen. HeLa replicates were maintained in sets of ten 15-cm plates. Cells were selected with puromycin as described above (K562: 1 day of 0.75 μg/mL and 1 day of 0.85 μg/mL; HeLa: 2 days of 0.8 μg/mL and 1 day of 1 μg/mL). The remainder of the screen was carried out at >1000× library coverage (K562 compact mismatched sgRNA library: >2000×; HeLa compact mismatched sgRNA library: >1000×; K562 constant region library: >2000×). Multiple samples were harvested after 4 to 8 days of growth. For the drug screen, 10 μM lovastatin (ApexBio) or an equivalent volume of DMSO (vehicle) was added to flasks at t=0, and 3 days later cells were pelleted and re-suspended in fresh medium. Lovastatin (12 μM) or DMSO was again added after 5 and 9 days of growth, with media exchanges 3 days after drug supplementation. Multiple samples were harvested after 4 to 8 days for the K562 and HeLa growth screens. […]"}
{"molecule": "B1", "Mean relative activity": 0.8946}
{"molecule": "B2", "Mean relative activity": 0.8861}
{"molecule": "B3", "Mean relative activity": 1.06}
{"molecule": "B4", "Mean relative activity": 0.8826}
{"molecule": "B5", "Mean relative activity": 0.8861}
{"molecule": "B6", "Mean relative activity": 0.8874}
{"molecule": "B7", "Mean relative activity": 0.8977}
{"molecule": "B8", "Mean relative activity": 0.885}
{"molecule": "B9", "Mean relative activity": 0.8901}
{"molecule": "B10", "Mean relative activity": 0.8852}
{"molecule": "B11", "Mean relative activity": 1.058}
{"molecule": "B12", "Mean relative activity": 0.886}
{"molecule": "B13", "Mean relative activity": 0.8857}
{"molecule": "B14", "Mean relative activity": 0.8907}
{"molecule": "B15", "Mean relative activity": 0.8864}
{"molecule": "B16", "Mean relative activity": 0.8842}
{"molecule": "B17", "Mean relative activity": 0.8858}
{"molecule": "B18", "Mean relative activity": 0.8963}
{"molecule": "B19", "Mean relative activity": 0.8871}
{"molecule": "B20", "Mean relative activity": 0.8977}
{"tested_on": "K562 CRISPRi cells", "assay": "Constant region variant library pooled growth screen, K562", "assay_type": "cell-based, human", "conditions": "sgRNA constant region variants; activity relative to the un-modified constant region cr995", "source_text": "as §1, §2, §3, §4"}
{"molecule": "B21", "Mean relative activity": 0.9006}
{"molecule": "B22", "Mean relative activity": 0.8998}
